# B1: VM1006 (antibody, V domains shown)
# VH: QVQLVQSGAEVKKPGASVKVSCKASGYVFTSYWLHWIRQSPSRGLEWLGYINPRNDYTEYNRIFKGRFVFSLDTSVSTAYLQICSLKAEDTAVYYCARRGITTFYWGQG
# VL: DIQMTQSPSSLSASVGDRVTITCKSSQSVLYSAVEKNYLAWYQQKPGKAPKLLIYWASTRERGIPDRFSGSGSGTDFTLTISRLEPEDFAVYYCKQYLSSWTFGQG
# notes: Humanized antibody with human constant region; also called anti-CD22 Mab clone VM1006
# Molecular target: T1, recombinant CD22 extracellular domain
# T1 construct: Kept apart from m18, which is cell-surface CD22; also called CD22 (analyte in the BIAcore runs); CD22 ECD
# T1 sequence (chain, as listed by the source limits assumed): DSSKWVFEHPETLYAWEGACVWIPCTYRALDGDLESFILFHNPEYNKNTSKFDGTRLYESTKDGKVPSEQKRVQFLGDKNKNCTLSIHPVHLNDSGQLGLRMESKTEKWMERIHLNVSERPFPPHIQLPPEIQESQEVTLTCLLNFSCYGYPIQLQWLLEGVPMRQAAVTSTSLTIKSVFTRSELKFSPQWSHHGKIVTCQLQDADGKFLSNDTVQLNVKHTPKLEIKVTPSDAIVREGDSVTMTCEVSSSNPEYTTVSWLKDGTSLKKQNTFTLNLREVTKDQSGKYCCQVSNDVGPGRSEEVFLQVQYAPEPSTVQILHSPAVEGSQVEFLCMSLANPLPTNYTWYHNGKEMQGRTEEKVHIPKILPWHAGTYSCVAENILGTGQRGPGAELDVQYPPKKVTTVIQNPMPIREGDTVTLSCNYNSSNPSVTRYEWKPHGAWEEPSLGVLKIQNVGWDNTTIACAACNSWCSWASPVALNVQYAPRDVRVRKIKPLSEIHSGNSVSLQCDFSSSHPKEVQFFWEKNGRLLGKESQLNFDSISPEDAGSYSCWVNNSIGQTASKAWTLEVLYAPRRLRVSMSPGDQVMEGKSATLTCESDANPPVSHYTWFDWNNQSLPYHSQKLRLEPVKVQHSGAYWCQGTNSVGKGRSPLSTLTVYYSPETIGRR
# Test: The sheet does not state the method. The column 'KD (nM)' stands beside the confocal data, and the target form is taken from FIGURE 18. FIGURE 18 prints 0.30 for this clone.
# Description: BIAcore 3000, GE Healthcare was used to determine binding curves and kinetic parameters. An anti-human Fc (1.8 mg/ml) was diluted to a concentration of 50 ug/ml in NaOAc buffer (10 mM, pH 4.8) and coupled to the carboxymethylated dextran matrix of a CM-5 sensor chip using the manufacturer's amine-coupling chemistry as described in the BIAcore systems manual. Using the surface preparation wizard aiming for 10000RU, the carboxyl groups on the sensor surfaces were first activated with NHS/EDC followed by the addition of the anti-human Fc. The remaining activated groups were blocked by the injection of 1M ethanolamine. Each of the flow cells was coupled individually. Employing these conditions, the four flow cell surfaces containing 7554-9571 RU of anti-human Fc were prepared. In preliminary experiments, it was determine that three injections (15 ul at 30 ul/min) 100 mM H₃PO₄/0.05% CHAPS would efficiently remove the bound immunoglobulin and preserve the binding capacity of the immobilized anti-human Fc.
# Experiments were performed on the BIAcore 3000 at 25° C. and a flow rate of 30 ul/min. […] Using the 1:1 model in BIAevaluation 4.1, both a local fit and global fit was done for both dissociation (kd, [s−1] and association (ka, [M⁻¹s⁻¹]) and the dissociation constant (KD, [M]) calculated (kd/ka).
binder,measurement,value
B1,Kd,2.7 nM
